The text below walks through data of paper PMC6287947.

Assay [1] concerns the target taxol-stabilized MTs. The assay can be described thus: co-sedimentation; 6His-Prp31 (10 nM) or 6His-Sf3A2 (13 nM) incubated at RT for 30 min with 2 μM taxol-stabilized MTs (or 2 μM tubulin without Taxol), centrifuged at 100,000 g at RT for 40 min; supernatants and pellets by Western blotting.
Assay [2] concerns the target taxol-stabilized MTs. The assay can be described thus: co-sedimentation; 6His-Prp31 (10 nM) or 6His-Sf3A2 (13 nM) with increasing amounts of taxol-stabilized MTs (0.25–2 μM of tubulin dimers in MT polymers), 25 mM NaCl, RT 30 min, 100,000 g 40 min; SDS-PAGE and Coomassie staining; three independent experiments.

As to “6His-Sf3A2 (from UniProt Q9VU15 1-264) (natural protein)”, the percent co-sedimented with MTs with taxol-stabilized MTs [1] and with taxol-stabilized MTs [2] was greater than 80% in each case.

B1: 6His-Prp31 (natural protein)
chain: MSLADELLADLEEDNDNELEEEDSEMASAEDESLLAEKLAKPAPNLMDVDVTVQSVRELCKLRDSERLKNTLQQIEHYASRQRTAAEMLGSVESDPEYCLIVDANAIAVDIDNEISIVHKFTKEKYQKRFPELDSLIVGEIEYLLAVKELGNDLDQVKNNEKLQAILTQATIMIVSVTASTTQGTMLTPAEKAKIDEACEMAIELNNFKSKIYEYVESRMTFIAPNLSMIVGASTAAKLLGIAGGLSKLSKMPACNVQVLGAQKKTLSGFSQTQMLPHTGYVYYSQIVQDTAPDLRRKAARLVAAKSVLAARVDACHESVHGEIGLRFKEDVEKKLDKLQEPPPVKFIKPLPKPIEGSKKKRGGKRVRKMKERYALTEFRKQANRMNFGDIEEDAYQGDLGYSRGTIGKTGTGRIRLPQVDEKTKVRISKTLHKNLQKQQVYGGNTTVKRQISGTASSVAFTPLQGLEIVNPQAAERSQTEANAKYFSNTSGFMSVGQRTT
For the molecule B1, the percent co-sedimented with MTs in the assay with taxol-stabilized MTs [1] and with taxol-stabilized MTs [2] was greater than 80% throughout.
